± gives the standard deviation of the averaged measurements.
Experiment: total protein half-life in vivo (active degradation + dilution); higher = more stable protein
[1] = E. coli NCM3722 delta-clpP delta-lon delta-hslV, growth: N-lim chemostat, doubling time 6 h
[2] = E. coli NCM3722 delta-clpP, growth: N-lim chemostat, doubling time 6 h
[3] = E. coli NCM3722 delta-hslV, growth: N-lim chemostat, doubling time 6 h
[4] = E. coli NCM3722 delta-lon, growth: N-lim chemostat, doubling time 6 h
[5] = E. coli NCM3722 delta-smpB, growth: N-lim chemostat, doubling time 6 h
[6] = wild type E. coli NCM3722, growth: C-lim chemostat, doubling time 6 h
[7] = wild type E. coli NCM3722, growth: C-lim chemostat, doubling time 12 h
[8] = wild type E. coli NCM3722, growth: N-lim chemostat, doubling time 6 h
[9] = wild type E. coli NCM3722, growth: N-lim chemostat, doubling time 12 h
[10] = wild type E. coli NCM3722, growth: P-lim chemostat, doubling time 6 h
[11] = wild type E. coli NCM3722, growth: P-lim chemostat, doubling time 12 h
[12] = wild type E. coli NCM3722, growth: C-lim chemostat, doubling time 3 h

Sequence | total protein half-life in vivo [1] [h] | total protein half-life in vivo [2] [h] | total protein half-life in vivo [3] [h] | total protein half-life in vivo [4] [h] | total protein half-life in vivo [5] [h] | total protein half-life in vivo [6] [h] | total protein half-life in vivo [7] [h] | total protein half-life in vivo [8] [h] | total protein half-life in vivo [9] [h] | total protein half-life in vivo [10] [h] | total protein half-life in vivo [11] [h] | total protein half-life in vivo [12] [h]
MKTVVFAYHDMGCLGIEALLAAGYEISAIFTHTDNPGEKAFYGSVARLAAERGIPVYAPDNVNHPLWVERIAQLSPDVIFSFYYRHLIYDEILQLAPAGAFNLHGSLLPKYRGRAPLNWVLVNGETETGVTLHRMVKRADAGAIVAQLRIAIAPDDIAITLHHKLCHAARQLLEQTLPAIKHGNILEIAQRENEATCFGRRTPDDSFLEWHKPASVLHNMVRAVADPWPGAFSYVGNQKFTVWSSRVHPHASKAQPGSVISVAPLLIACGDGALEIVTGQAGDGITMQGSQLAQTLGLVQGSRLNSQPACTARRRTRVLILGVNGFIGNHLTERLLREDHYEVYGLDIGSDAISRFLNHPHFHFVEGDISIHSEWIEYHVKKCDVVLPLVAIATPIEYTRNPLRVFELDFEENLRIIRYCVKYRKRIIFPSTSEVYGMCSDKYFDEDHSNLIVGPVNKPRWIYSVSKQLLDRVIWAYGEKEGLQFTLFRPFNWMGPRLDNLNAARIGSSRAITQLILNLVEGSPIKLIDGGKQKRCFTDIRDGIEALYRIIENAGNRCDGEIINIGNPENEASIEELGEMLLASFEKHPLRHHFPPFAGFRVVESSSYYGKGYQDVEHRKPSIRNAHRCLDWEPKIDMQETIDETLDFFLRTVDLTDKPS | 5.15 ± 0.03 | 3.11 ± 0.24 | 2.84 ± 0.19 | 3.86 ± 0.1 | 3.13 ± 0.3 | 4.8816 ± 0.00064 | 10.4 ± 1.2 | 2.93 ± 0.43 | 4.61 ± 0.62 | 5.82 ± 0.22 | 11.65 ± 0.019 | 
MKVAVLGAAGGIGQALALLLKTQLPSGSELSLYDIAPVTPGVAVDLSHIPTAVKIKGFSGEDATPALEGADVVLISAGVARKPGMDRSDLFNVNAGIVKNLVQQVAKTCPKACIGIITNPVNTTVAIAAEVLKKAGVYDKNKLFGVTTLDIIRSNTFVAELKGKQPGEVEVPVIGGHSGVTILPLLSQVPGVSFTEQEVADLTKRIQNAGTEVVEAKAGGGSATLSMGQAAARFGLSLVRALQGEQGVVECAYVEGDGQYARFFSQPLLLGKNGVEERKSIGTLSAFEQNALEGMLDTLKKDIALGEEFVNK | 4.53 ± 0.53 | 3.92 ± 0.44 | 3.803 ± 0.013 | 4.42 ± 0.25 | 3.84 ± 0.068 | 5.65 ± 0.34 | 9.69 ± 0.74 | 3.98 ± 0.16 | 6.2 ± 0.2 | 5.94 ± 0.074 | 11.8 ± 0.51 | 3.039 ± 0.028
MKVIIVEDEFLAQQELSWLIKEHSQMEIVGTFDDGLDVLKFLQHNRVDAIFLDINIPSLDGVLLAQNISQFAHKPFIVFITAWKEHAVEAFELEAFDYILKPYQESRITGMLQKLEAAWQQQQTSSTPAATVTRENDTINLVKDERIIVTPINDIYYAEAHEKMTFVYTRRESYVMPMNITEFCSKLPPSHFFRCHRSFCVNLNKIREIEPWFNNTYILRLKDLDFEVPVSRSKVKEFRQLMHL [P0AE39] | 5.23 ± 0.21 | 4.51 ± 0.32 | 4.019 ± 0.0042 | 4.73 ± 0.72 | 4.01 ± 0.061 | 6 ± 0.71 | 8.85 ± 0.64 | 4.44 ± 0.42 | 7.31 ± 0.66 | 4.93 ± 0.72 | 9.66 ± 0.46 | 2.8 ± 0.42
MKVLIVESEFLHQDTWVGNAVERLADALSQQNVTVIKSTSFDDGFAILSSNEAIDCLMFSYQMEHPDEHQNVRQLIGKLHERQQNVPVFLLGDREKALAAMDRDLLELVDEFAWILEDTADFIAGRAVAAMTRYRQQLLPPLFSALMKYSDIHEYSWAAPGHQGGVGFTKTPAGRFYHDYYGENLFRTDMGIERTSLGSLLDHTGAFGESEKYAARVFGADRSWSVVVGTSGSNRTIMQACMTDNDVVVVDRNCHKSIEQGLMLTGAKPVYMVPSRNRYGIIGPIYPQEMQPETLQKKISESPLTKDKAGQKPSYCVVTNCTYDGVCYNAKEAQDLLEKTSDRLHFDEAWYGYARFNPIYADHYAMRGEPGDHNGPTVFATHSTHKLLNALSQASYIHVREGRGAINFSRFNQAYMMHATTSPLYAICASNDVAVSMMDGNSGLSLTQEVIDEAVDFRQAMARLYKEFTADGSWFFKPWNKEVVTDPQTGKTYDFADAPTKLLTTVQDCWVMHPGESWHGFKDIPDNWSMLDPIKVSILAPGMGEDGELEETGVPAALVTAWLGRHGIVPTRTTDFQIMFLFSMGVTRGKWGTLVNTLCSFKRHYDANTPLAQVMPELVEQYPDTYANMGIHDLGDTMFAWLKENNPGARLNEAYSGLPVAEVTPREAYNAIVDNNVELVSIENLPGRIAANSVIPYPPGIPMLLSGENFGDKNSPQVSYLRSLQSWDHHFPGFEHETEGTEIIDGIYHVMCVKA | 5.82 ± 0.47 | 4.96 ± 1.1 | 6.09 ± 0.29 | 5.74 ± 0.22 | 5.38 ± 0.21 | 5.14 ± 0.23 | 11.5 ± 0.12 | 6.03 ± 0.28 | 12.1 ± 2 | 6.14 ± 0.3 | 11.5 ± 0.15 | 3.193 ± 0.023
MKVSVPGMPVTLLNMSKNDIYKMVSGDKMDVKMNIFQRLWETLRHLFWSDKQTEAYKLLFNFVNNQTGNINASEYFTGAINENEREKFINSLELFNKLKTCAKNPDELVAKGNMRWVAQTFGDIELSVTFFIEKNKICTQTLQLHKGQGNLGVDLRKAYLPGVDMRDCYLGKKTMKGSNDILYERPGWNANLGVLPRTVLPRTVLTRTVLTWTVLP | 4.07 |  |  |  |  |  |  |  |  |  |  | 
MKWDWIFFDADETLFTFDSFTGLQRMFLDYSVTFTAEDFQDYQAVNKPLWVDYQNGAITSLQLQHGRFESWAERLNVEPGKLNEAFINAMAEICTPLPGAVSLLNAIRGNAKIGIITNGFSALQQVRLERTGLRDYFDLLVISEEVGVAKPNKKIFDYALEQAGNPDRSRVLMVGDTAESDILGGINAGLATCWLNAHHREQPEGIAPTWTVSSLHELEQLLCKH [P0A8Y1] | 5.28 ± 0.098 | 0.513 |  | 0.534 | 0.471 ± 0.024 | 0.671 | 2.97 | 1.11 | 1.51 | 0.949 ± 0.33 |  | 0.631 ± 0.016
